In patent publication US7172876B2, “Method of screening therapeutic agents for nerve degeneration associated diseases” (Takeda Pharmaceutical Company Limited, priority 2002, dated 2007):
Positions count from the first letter of the chain named. Ends that are not written are not given here. * marks the point of attachment. For = O=C*

Key:
[1] = biological target: T1, FPRL1 (Homo sapiens, UniProt P25090); details: reported in the literature; cited from earlier work
T1 sequence (P25090 1-351): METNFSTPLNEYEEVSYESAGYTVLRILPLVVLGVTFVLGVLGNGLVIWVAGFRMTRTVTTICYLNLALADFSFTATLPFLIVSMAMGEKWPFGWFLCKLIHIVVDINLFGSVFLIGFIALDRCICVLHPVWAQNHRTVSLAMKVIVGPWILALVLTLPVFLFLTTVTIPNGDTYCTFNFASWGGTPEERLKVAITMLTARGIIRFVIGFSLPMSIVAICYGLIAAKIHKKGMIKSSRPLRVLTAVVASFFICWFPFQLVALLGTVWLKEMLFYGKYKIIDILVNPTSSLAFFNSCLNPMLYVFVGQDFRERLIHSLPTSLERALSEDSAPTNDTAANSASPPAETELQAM

[2] = biological target: T2, FPRL2 (Homo sapiens, UniProt P25089); details: reported in the literature; cited from earlier work
T2 sequence (P25089 1-353): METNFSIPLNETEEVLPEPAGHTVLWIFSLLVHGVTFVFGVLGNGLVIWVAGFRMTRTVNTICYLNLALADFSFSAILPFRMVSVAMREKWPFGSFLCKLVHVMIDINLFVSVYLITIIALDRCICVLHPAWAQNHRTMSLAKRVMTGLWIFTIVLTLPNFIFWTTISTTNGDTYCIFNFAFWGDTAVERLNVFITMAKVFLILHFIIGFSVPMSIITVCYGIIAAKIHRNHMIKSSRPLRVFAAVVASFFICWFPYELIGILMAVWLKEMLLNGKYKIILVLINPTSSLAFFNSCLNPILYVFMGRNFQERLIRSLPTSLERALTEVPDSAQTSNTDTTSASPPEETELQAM

[3] = tested on: rFPRL1; test: Inhibition of forskolin-increased intracellular cAMP in rat FPRL1-expressing CHO cells; assay type: cell-based; details: 1 μM forskolin
Protocol: (§1) CHO cells expressing each receptor were washed with an assay medium (HBSS (GibcoBRL) supplemented with 0.1% bovine serum albumin and 0.2 mM IBMX) and then cultured at 37° C. in 5% CO2 for 30 minutes. Humanin (Peptide Research Laboratory, Co.) or related substances diluted at each concentration with the assay buffer were added thereto, and then forskolin was added at a final concentration of 1 μM. The cells were cultured at 37° C. in 5% CO2 for 30 minutes. The culture supernatant was discarded, and the amount of cAMP in the cells was measured with a plate reader (ARVO sx multi-label counter, manufactured by Wallac) according to a protocol of a cAMP screen kit (Applied Biosystems). Assuming that the amount of cAMP produced in the cells to which 1 μM forskolin had been added was 100% and the amount of cAMP produced in the cells to which forskolin had not been added was 0%, the amount of cAMP upon addition of each agonist is shown in %. The concentration at which the amount of cAMP produced was inhibited by 50% (EC50) was calculated from logit-log plotting.

[4] = biological target: T1, FPRL1; test: Inhibition of forskolin-increased intracellular cAMP in human FPRL1-expressing CHO cells; assay type: cell-based; parameters: expressed in transfected cells; host or cells: CHO cells (clone No. 8; the title also lists a 'Human FPRL1' clone No. 14); details: 1 μM forskolin
[5] = biological target: T3, hFPRL2 (Homo sapiens, UniProt P25089); test: Inhibition of forskolin-increased intracellular cAMP in human FPRL2-expressing CHO cells; assay type: cell-based; details: 1 μM forskolin
T3 construct: expressed in transfected cells; host or cells: CHO cells (clone No. 17)
T3 sequence (P25089 1-353 G94A/S211T/D338H): T2 sequence (P25089 1-353) with G94A, S211T, D338H
Protocol: as §1

[6] = biological target: T4, mFPRL2 (Mus musculus, UniProt O88536); test: Inhibition of forskolin-increased intracellular cAMP in mouse FPRL2-expressing CHO cells; assay type: cell-based; details: 1 μM forskolin
T4 construct: expressed in transfected cells; host or cells: CHO cells (clone No. 15); expression vector pAKKO-111H
T4 sequence (O88536 1-351): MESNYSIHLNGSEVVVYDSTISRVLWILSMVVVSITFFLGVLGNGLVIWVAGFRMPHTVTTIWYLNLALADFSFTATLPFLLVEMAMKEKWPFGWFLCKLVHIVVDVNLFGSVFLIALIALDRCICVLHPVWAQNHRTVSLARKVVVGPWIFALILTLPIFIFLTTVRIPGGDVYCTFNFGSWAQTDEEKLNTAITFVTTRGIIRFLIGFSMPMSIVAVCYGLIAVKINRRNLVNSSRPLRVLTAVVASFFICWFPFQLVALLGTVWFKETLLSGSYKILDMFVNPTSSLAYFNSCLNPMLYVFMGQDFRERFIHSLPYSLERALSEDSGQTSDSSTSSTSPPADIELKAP
Protocol: as §1

[7] = biological target: T2, FPRL2; details: reported in the literature; cited from earlier work; remark: listed apart in the source
[8] = tested on: nerve cells; details: reported in the literature; cited from earlier work
[9] = tested on: FPRL1-GFP; test: Inhibition of forskolin-increased intracellular cAMP in CHO cells expressing FPRL1-GFP; assay type: cell-based; details: 1 μM forskolin; CHO cells expressing FPRL1-GFP compared with mock CHO cells (vector only)
Protocol: CHO cells expressing FPRL1-GFP were washed with an assay medium (HBSS (GibcoBRL) supplemented with 0.1% bovine serum albumin and 0.2 mM IBMX) and then cultured at 37° C. in 5% CO2 for 30 minutes. Humanin (Peptide Research Laboratory, Co.) or related substances diluted at each concentration with the assay buffer were added thereto, and then forskolin was added at a final concentration of 1 μM. The cells were cultured at 37° C. in 5% CO2 for 30 minutes. The culture supernatant was discarded, and the amount of cAMP in the cells was measured with a plate reader (ARVO sx multi-label counter, manufactured by Wallac) according to a protocol of a cAMP screen kit (Applied Biosystems).

Sequence of rFPRL1 (as listed by the source): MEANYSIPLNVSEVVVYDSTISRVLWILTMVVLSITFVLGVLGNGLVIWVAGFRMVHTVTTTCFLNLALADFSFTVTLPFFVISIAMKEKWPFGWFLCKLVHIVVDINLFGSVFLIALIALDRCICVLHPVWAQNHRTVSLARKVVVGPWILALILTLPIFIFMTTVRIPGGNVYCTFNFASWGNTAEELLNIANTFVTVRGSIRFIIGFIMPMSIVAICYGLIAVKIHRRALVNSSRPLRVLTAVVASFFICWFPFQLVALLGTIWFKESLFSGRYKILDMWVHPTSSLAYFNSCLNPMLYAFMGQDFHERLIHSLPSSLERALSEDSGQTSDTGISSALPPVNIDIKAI

Compound: CCCCC[C@H](O)/C=C/C=C\C=C\C=C\[C@@H](O)[C@@H](O)CCCC(=O)O [lipoxin A4]
- agonist of FPRL1 [1]: Agonists

Compound: Aβ42: β-amyloid (1-42), intrinsic substance reported as agonist of FPRL1
- agonist of FPRL1 [1]: agonist

Compound: Trp-Lys-Tyr-Met-Val-dMet-NH2 [W-Peptide]
- agonist of FPRL2 [2]: agonist

Compound: [Gly^14]-humanin: [Gly^14]-human humanin (1-24) consisting of the amino acid sequence represented by SEQ ID NO: 4 (MAPRGFSCLLLLTGEIDLPVKRRA; Human)
- reaction with rFPRL1 (inhibition of forskolin-increased intracellular cAMP) [3]: react
- reaction with hFPRL1 (inhibition of forskolin-increased intracellular cAMP) [4]: react
- reaction with hFPRL2 (inhibition of forskolin-increased intracellular cAMP) [5]: strongly
- reaction with mFPRL2 (inhibition of forskolin-increased intracellular cAMP) [6]: react

Compound: formyl-Humanin: human humanin (1-24), SEQ ID NO: 3, wherein Met of the N-terminus is formylated
- reaction with rFPRL1 (inhibition of forskolin-increased intracellular cAMP) [3]: react
- reaction with mFPRL2 (inhibition of forskolin-increased intracellular cAMP) [6]: react

Compound: formyl-Met-Leu-Phe [fMLF]
- reaction of human FPRL2 with fMLF [7]: does not react

Compound: humanin: human humanin (1-24) consisting of the amino acid sequence represented by SEQ ID NO: 3
- reaction with rFPRL1 (inhibition of forskolin-increased intracellular cAMP) [3]: react
- reaction with hFPRL1 (inhibition of forskolin-increased intracellular cAMP) [4]: react
- reaction with hFPRL2 (inhibition of forskolin-increased intracellular cAMP) [5]: strongly
- death of nerve cells into which the familial Alzheimer's disease gene had been introduced [8]: inhibited
- nerve apotosis induced by adding β-amyloid [8]: inhibited
- decrease of the amount of intracellular cAMP increased by addition of forskolin [9]: dose-dependent and specific decrease
- reaction with mFPRL2 (inhibition of forskolin-increased intracellular cAMP) [6]: react

Compound: mt-formyl-Humanin: human humanin (1-21), SEQ ID NO: 6, wherein Met at the N-terminus is formylated (For-MAPRGFSCLLLLTSEIDLPVK)
- reaction with rFPRL1 (inhibition of forskolin-increased intracellular cAMP) [3]: react
- reaction with hFPRL1 (inhibition of forskolin-increased intracellular cAMP) [4]: strongly
- reaction with mFPRL2 (inhibition of forskolin-increased intracellular cAMP) [6]: react

Compound: mt-formyl-rattin: rat humanin (1-21), SEQ ID NO: 9, wherein Met at the N-terminus is formylated (For-MAKRGFNCLLLSISEIDLPVK)
- reaction with rFPRL1 (inhibition of forskolin-increased intracellular cAMP) [3]: react
- reaction with hFPRL1 (inhibition of forskolin-increased intracellular cAMP) [4]: strongly
- reaction with mFPRL2 (inhibition of forskolin-increased intracellular cAMP) [6]: react
